Consider one substance from patent publication US20050208046A1.

This assay has as its target FLAG-TWEAKR (human).

As for “M2 anti-FLAG monoclonal antibody cross-linked with goat anti-mouse IgG (tool reagent)”, the BrdU incorporation of transfected HUVEC was 6 fold.
